The labels stand for the following.
B1: TMEM192 (parent)
chain: LWILHLLLECYIQYHHSKIRNRGY
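Note: lentivirally expressed fusions sorted by FACS into six bins by GFP to DsRed ratio, PSI derived from sequencing read proportions per bin multiplied by bin number.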

This series covers variants of B1. Briefly: protein stability index of a GFP-peptide fusion (GPS, HEK-293T) (PSI 1-6); higher = more stable. The note with it: c terminus: a fixed tail appended.
On to LWILHLLLELYIQYHHSKIRNRGY, for which the protein stability index was found to be 4.54.

Regarding LWILHLLLEQYIQYHHSKIRNRGY, the protein stability index amounted to 1.95.

In the case of LWILHLLLEWYIQYHHSKIRNRGY, the protein stability index came out at 1.4.

Take LWILHLLLEEYIQYHHSKIRNRGY: the protein stability index amounted to 1.94.

As to LWILHLLLESYIQYHHSKIRNRGY, the protein stability index was 1.72.

LWILHLLLEPYIQYHHSKIRNRGY: the protein stability index amounted to 2.22.

In the case of LWILHLLLEFYIQYHHSKIRNRGY, the protein stability index is 2.53.

LWILHLLLEKYIQYHHSKIRNRGY: the protein stability index came out at 1.72.

For LWILHLLLENYIQYHHSKIRNRGY, the protein stability index came out at 1.79.

For the variant LWILHLLLEGYIQYHHSKIRNRGY, the protein stability index worked out at 1.18.

LWILHLLLEAYIQYHHSKIRNRGY: the protein stability index was 2.09.

Turning to LWILHLLLERYIQYHHSKIRNRGY, the protein stability index came out at 2.03.

Regarding LWILHLLLEHYIQYHHSKIRNRGY, the protein stability index amounted to 1.98.

In the case of LWILHLLLEDYIQYHHSKIRNRGY, the protein stability index turned out to be 2.63.

For LWILHLLLICYIQYHHSKIRNRGY, the protein stability index was 2.56.

With LWILHLLLCCYIQYHHSKIRNRGY, the protein stability index stood at 3.27.

For the variant LWILHLLLGCYIQYHHSKIRNRGY, the protein stability index worked out at 2.

As to LWILHLLLMCYIQYHHSKIRNRGY, the protein stability index was 2.33.

Turning to LWILHLLLDCYIQYHHSKIRNRGY, the protein stability index came out at 1.94.

In the case of LWILHLLLHCYIQYHHSKIRNRGY, the protein stability index came out at 1.47.

Consider LWILHLLLKCYIQYHHSKIRNRGY, for which the protein stability index was found to be 3.05.

As to LWILHLLLNCYIQYHHSKIRNRGY, the protein stability index is 1.44.

Regarding LWILHLLLVCYIQYHHSKIRNRGY, the protein stability index was determined as 3.35.

For the variant LWILHLLLLCYIQYHHSKIRNRGY, the protein stability index was found to be 1.7.

In the case of LWILHLLLPCYIQYHHSKIRNRGY, the protein stability index is 3.73.

Take LWILHLLLRCYIQYHHSKIRNRGY: the protein stability index is 2.99.

Consider LWILHLLLFCYIQYHHSKIRNRGY, for which the protein stability index came to 3.6.

Consider LWILHLLLTCYIQYHHSKIRNRGY, for which the protein stability index is 1.96.

Turning to LWILHLLLWCYIQYHHSKIRNRGY, the protein stability index was determined as 3.27.

Consider LWILHLLLSCYIQYHHSKIRNRGY, for which the protein stability index amounted to 2.28.

In the case of LWILHLLLQCYIQYHHSKIRNRGY, the protein stability index was found to be 2.48.

For LWILQLLLECYIQYHHSKIRNRGY, the protein stability index worked out at 1.72.

Take LWILVLLLECYIQYHHSKIRNRGY: the protein stability index is 2.22.

Consider LWILDLLLECYIQYHHSKIRNRGY, for which the protein stability index was 1.05.

As for LWILTLLLECYIQYHHSKIRNRGY, the protein stability index was 2.61.

Consider LWILPLLLECYIQYHHSKIRNRGY, for which the protein stability index is 3.17.

As for LWILILLLECYIQYHHSKIRNRGY, the protein stability index is 2.77.

Regarding LWILCLLLECYIQYHHSKIRNRGY, the protein stability index amounted to 1.66.

LWILLLLLECYIQYHHSKIRNRGY: the protein stability index came out at 2.28.

In the case of LWILKLLLECYIQYHHSKIRNRGY, the protein stability index was determined as 2.35.

For the variant LWILGLLLECYIQYHHSKIRNRGY, the protein stability index amounted to 1.48.

Consider LWILELLLECYIQYHHSKIRNRGY, for which the protein stability index stood at 2.26.

For the variant LWHLHLLLECYIQYHHSKIRNRGY, the protein stability index worked out at 2.09.

LWALHLLLECYIQYHHSKIRNRGY: the protein stability index was found to be 1.76.

Turning to LWCLHLLLECYIQYHHSKIRNRGY, the protein stability index was 2.62.

On to LWVLHLLLECYIQYHHSKIRNRGY, for which the protein stability index is 2.65.

For LWLLHLLLECYIQYHHSKIRNRGY, the protein stability index worked out at 3.4.

Turning to LWTLHLLLECYIQYHHSKIRNRGY, the protein stability index was 2.34.

In the case of LWRLHLLLECYIQYHHSKIRNRGY, the protein stability index was 1.74.

As to LWKLHLLLECYIQYHHSKIRNRGY, the protein stability index is 2.31.

LWELHLLLECYIQYHHSKIRNRGY: the protein stability index was 1.68.

Take LWWLHLLLECYIQYHHSKIRNRGY: the protein stability index was 1.61.

LWSLHLLLECYIQYHHSKIRNRGY: the protein stability index turned out to be 2.32.

Take LWNLHLLLECYIQYHHSKIRNRGY: the protein stability index came out at 2.2.

With LWDLHLLLECYIQYHHSKIRNRGY, the protein stability index is 1.71.

With LWYLHLLLECYIQYHHSKIRNRGY, the protein stability index stood at 1.62.

For the variant LWQLHLLLECYIQYHHSKIRNRGY, the protein stability index amounted to 1.37.

As to LWGLHLLLECYIQYHHSKIRNRGY, the protein stability index amounted to 1.37.

Consider LWMLHLLLECYIQYHHSKIRNRGY, for which the protein stability index is 1.35.

Regarding GWILHLLLECYIQYHHSKIRNRGY, the protein stability index stood at 3.04.

With KWILHLLLECYIQYHHSKIRNRGY, the protein stability index is 2.06.

As to CWILHLLLECYIQYHHSKIRNRGY, the protein stability index amounted to 2.89.

In the case of AWILHLLLECYIQYHHSKIRNRGY, the protein stability index is 3.09.

Regarding QWILHLLLECYIQYHHSKIRNRGY, the protein stability index is 3.9.

In the case of IWILHLLLECYIQYHHSKIRNRGY, the protein stability index came out at 2.1.

EWILHLLLECYIQYHHSKIRNRGY: the protein stability index was 3.02.

With DWILHLLLECYIQYHHSKIRNRGY, the protein stability index came out at 3.

Turning to TWILHLLLECYIQYHHSKIRNRGY, the protein stability index came out at 3.75.

For VWILHLLLECYIQYHHSKIRNRGY, the protein stability index turned out to be 2.17.

Turning to YWILHLLLECYIQYHHSKIRNRGY, the protein stability index came out at 2.72.

With HWILHLLLECYIQYHHSKIRNRGY, the protein stability index is 4.56.

For MWILHLLLECYIQYHHSKIRNRGY, the protein stability index turned out to be 1.48.

As to LWILHALLECYIQYHHSKIRNRGY, the protein stability index worked out at 2.43.

In the case of LWILHHLLECYIQYHHSKIRNRGY, the protein stability index was found to be 2.37.

In the case of LWILHYLLECYIQYHHSKIRNRGY, the protein stability index is 1.8.

For LWILHCLLECYIQYHHSKIRNRGY, the protein stability index was determined as 1.67.

LWILHPLLECYIQYHHSKIRNRGY: the protein stability index was found to be 1.97.

Take LWILHDLLECYIQYHHSKIRNRGY: the protein stability index is 1.87.

For LWILHILLECYIQYHHSKIRNRGY, the protein stability index is 1.65.

Consider LWILHGLLECYIQYHHSKIRNRGY, for which the protein stability index turned out to be 1.69.

In the case of LWILHELLECYIQYHHSKIRNRGY, the protein stability index is 2.09.

On to LWILHKLLECYIQYHHSKIRNRGY, for which the protein stability index stood at 2.

Take LWILHSLLECYIQYHHSKIRNRGY: the protein stability index was 1.62.

As to LWILHTLLECYIQYHHSKIRNRGY, the protein stability index came out at 2.81.

Turning to LWILHQLLECYIQYHHSKIRNRGY, the protein stability index was 1.99.

Take LWILHMLLECYIQYHHSKIRNRGY: the protein stability index turned out to be 1.65.

Regarding LWILHNLLECYIQYHHSKIRNRGY, the protein stability index is 1.97.

For the variant LWILHRLLECYIQYHHSKIRNRGY, the protein stability index amounted to 1.73.

For LWILHLVLECYIQYHHSKIRNRGY, the protein stability index is 3.56.

LWILHLALECYIQYHHSKIRNRGY: the protein stability index is 3.25.

Regarding LWILHLDLECYIQYHHSKIRNRGY, the protein stability index was determined as 3.52.

For LWILHLELECYIQYHHSKIRNRGY, the protein stability index worked out at 2.73.

As to LWILHLFLECYIQYHHSKIRNRGY, the protein stability index turned out to be 1.88.

In the case of LWILHLTLECYIQYHHSKIRNRGY, the protein stability index stood at 3.78.

Source of the values: the supplement of paper PMC10567573.
